Starred links: 1 amine or outer side, 2 acyl side, 3 side chain; linkers in the order of their positions; H or OH if unused. Positions of bridges follow the written chain, without caps; N, C: chain ends. Non-standard residues stand in square brackets, D forms with d. Primed or numbered codes have the meaning given here. No end group written: not given here. Trp(7-aza) = N[C@@H](Cc1c[nH]c2ncccc12)C(=O)O; mXylyl(4) = bridging moiety between residues; NMePhe(4-F) = CN[C@@H](Cc1ccc(F)cc1)C(=O)O; pXylyl = bridging moiety between residues; mXylylene = c1cc(C[*:1])cc(C[*:2])c1; oXylylene = c1ccc(C[*:2])c(C[*:1])c1; Phg = N[C@H](C(=O)O)c1ccccc1; Tle = CC(C)(C)[C@H](N)C(=O)O; NMeS = CN[C@@H](CO)C(=O)O; NMeA = CN[C@@H](C)C(=O)O; Nva = CCC[C@H](N)C(=O)O; Sar = CNCC(=O)O
B1: R3053 (peptide)
peptide: [Nva]CCN[Tle][Phg]C[Tle][NMeS]C[Tle]-NH2
modifications: linker (positions not given here) via mXylylene; also: mXylyl bicyclo: linked cysteines not given here
B2: R3004 (peptide)
peptide: Ac-[Nva]CYNN[Tle]E[Trp(7-aza)]EYP[Phg][Tle]-NH2
SMILES: CCC[C@H](NC(C)=O)C(=O)N[C@@H](CS)C(=O)N[C@@H](Cc1ccc(O)cc1)C(=O)N[C@@H](CC(N)=O)C(=O)N[C@@H](CC(N)=O)C(=O)N[C@H](C(=O)N[C@@H](CCC(=O)O)C(=O)N[C@@H](Cc1c[nH]c2ncccc12)C(=O)N[C@@H](CCC(=O)O)C(=O)N[C@@H](Cc1ccc(O)cc1)C(=O)N1CCC[C@H]1C(=O)N[C@H](C(=O)N[C@H](C(N)=O)C(C)(C)C)c1ccccc1)C(C)(C)C
B3: R3003 (peptide)
peptide: Ac-[Nva]CYEN[Tle]Y[Trp(7-aza)]EYP[Phg]P-NH2
SMILES: CCC[C@H](NC(C)=O)C(=O)N[C@@H](CS)C(=O)N[C@@H](Cc1ccc(O)cc1)C(=O)N[C@@H](CCC(=O)O)C(=O)N[C@@H](CC(N)=O)C(=O)N[C@H](C(=O)N[C@@H](Cc1ccc(O)cc1)C(=O)N[C@@H](Cc1c[nH]c2ncccc12)C(=O)N[C@@H](CCC(=O)O)C(=O)N[C@@H](Cc1ccc(O)cc1)C(=O)N1CCC[C@H]1C(=O)N[C@H](C(=O)N1CCC[C@H]1C(N)=O)c1ccccc1)C(C)(C)C
B4: R3049 (peptide)
peptide: Ac-[Nva]C[Phg]T[Trp(7-aza)]EY[NMeS]HC[Nva]-NH2
modifications: linker 2-10 via oXylylene
SMILES: CCC[C@H](NC(=O)[C@@H]1CSCc2ccccc2CSC[C@H](NC(=O)[C@H](CCC)NC(C)=O)C(=O)N[C@@H](c2ccccc2)C(=O)N[C@@H]([C@@H](C)O)C(=O)N[C@@H](Cc2c[nH]c3ncccc23)C(=O)N[C@@H](CCC(=O)O)C(=O)N[C@@H](Cc2ccc(O)cc2)C(=O)N(C)[C@@H](CO)C(=O)N[C@@H](Cc2c[nH]cn2)C(=O)N1)C(N)=O

target: human C5 protein (human, UniProt P01031 19-673; P01031 678-1676); assay: cell-based or functional assay

First: B1
Second: Ac-[Nva]C[Phg]T[Trp(7-aza)]EY[NMeS]HCA-NH2 (linker 2-10 via mXylyl(4)) [R3039]
The “Avg. IC50, human hemolysis assay” value of the first is higher: > 100000 nM for the first, 240 nM for the second.

Going from Ac-[Nva]C[Phg]T[Trp(7-aza)]EY[NMeS]HC[Nva]-NH2 (linker 2-10 via pXylyl) [R3050] to [Nva]CY[NMeS][Phg][NMePhe(4-F)][NMeS]H[NMePhe(4-F)][Sar]C-NH2 (linker 2-11 via mXylyl(4)) [R3051], the “Avg. IC50, human hemolysis assay” value rises from 42.9 nM to > 100000 nM.

First: B2
Second: Ac-[Nva]C[Phg]T[Trp(7-aza)]EY[NMeS]AC[Nva]-NH2 (linker 2-10 via mXylyl(4)) [R3038]
The “Avg. IC50, human hemolysis assay” value of the first is 2.6-fold lower: 53.5 nM for the first, 140 nM for the second.

First: Ac-[Nva]C[Phg]T[Trp(7-aza)]EY[NMeS]HC[Nva]P[Nva] (bridge 2-10) [R3040]
Second: B3
The “Avg. IC50, human hemolysis assay” value of the first is higher: > 100000 nM for the first, 13.9 nM for the second.

[Nva]CY[Tle][Phg]N[Sar]LC[Phg][NMeA]-NH2 (linker 2-9 via mXylyl(4)) [R3052] and Ac-[Nva]C[Phg]T[Trp(7-aza)]EY[NMeS]HC[Nva]-NH2 (bridge 2-10) [R3042] cannot be ordered by “Avg. IC50, human hemolysis assay” value: > 100000 nM for the first, > 100000 nM for the second.

B4 was tested, and the “Avg. IC50, human hemolysis assay” value was > 3100 nM.
